Usually stoichiometry N stands for the number of molecules, sites or subunits per partner or assembly.

B1: FabF (KASII family β-ketoacyl-ACP synthase), wild type (enzyme, E. coli)
chain: MSKRRVVVTGLGMLSPVGNTVESTWKALLAGQSGISLIDHFDTSAYATKFAGLVKDFNCEDIISRKEQRKMDAFIQYGIVAGVQAMQDSGLEITEENATRIGAAIGSGIGGLGLIEENHTSLMNGGPRKISPFFVPSTIVNMVAGHLTIMYGLRGPSISIATACTSGVHNIGHAARIIAYGDADVMVAGGAEKASTPLGVGGFGAARALSTRNDNPQAASRPWDKERDGFVLGDGAGMLVLEEYEHAKKRGAKIYAELVGFGMSSDAYHMTSPPENGAGAALAMANALRDAGIEASQIGYVNAHGTSTPAGDKAEAQAVKTIFGEAASRVLVSSTKSMTGHLLGAAGAVESIYSILALRDQAVPPTINLDNPDEGCDLDFVPHEARQVSGMEYTLCNSFGFGGTNGSLIFKKI
notes: FabF, elongating β-ketoacyl-ACP synthase (KASII family), E. coli; also called wt FabF; source: E. coli BL21, purified (Ni-NTA, thrombin cleavage, Superdex 200); not shown: His8, N-terminal, cleaved
B2: FabB (KASI family β-ketoacyl-ACP synthase), wild type (enzyme, E. coli)
chain: MKRAVITGLGIVSSIGNNQQEVLASLREGRSGITFSQELKDSGMRSHVWGNVKLDTTGLIDRKVVRFMSDASIYAFLSMEQAIADAGLSPEAYQNNPRVGLIAGSGGGSPRFQVFGADAMRGPRGLKAVGPYVVTKAMASGVSACLATPFKIHGVNYSISSACATSAHCIGNAVEQIQLGKQDIVFAGGGEELCWEMACEFDAMGALSTKYNDTPEKASRTYDAHRDGFVIAGGGGMVVVEELEHALARGAHIYAEIVGYGATSDGADMVAPSGEGAVRCMKMAMHGVDTPIDYLNSHGTSTPVGDVKELAAIREVFGDKSPAISATKAMTGHSLGAAGVQEAIYSLLMLEHGFIAPSINIEELDEQAAGLNIVTETTDRELTTVMSNSFGFGGTNATLVMRKLKD
notes: FabB, elongating β-ketoacyl-ACP synthase (KASI family), E. coli; source: E. coli BL21, purified (Ni-NTA, thrombin cleavage, Superdex 200); not shown: His8, N-terminal, cleaved
B3: C8Cl-AcpP (natural protein, E. coli)
chain: MSTIEERVKKIIGEQLGVKQEEVTNNASFVEDLGADSLDTVELVMALEEEFDTEIPDEEAEKITTVQAAIDYINGHQA
modifications: Ser36 carries a 4'-phosphopantetheineamide arm with the C8 chloroacrylate (chlorovinyl) probe
notes: acyl carrier protein AcpP, E. coli; also called C8Cl (2b); source: E. coli BL21 (DE3), purified; apofied with AcpH, loaded with the C8 chloroacrylate probe by the one-pot chemoenzymatic method, purified by SEC
B4: crypto-1a-AcpP (C12AcpP) (natural protein, E. coli)
chain: B3 chain
modifications: Ser36 carries a 4'-phosphopantetheineamide arm with the C12 α-bromo acyl probe 1a
notes: acyl carrier protein AcpP, E. coli; Called 'native AcpP recombinant protein'; no tag is named; In the crosslinked complexes the α-carbon of the probe is bonded to Cys163 of the KS; also called C12αBr-AcpP; C12αBr (1a); source: E. coli BL21 (DE3), purified (isopropanol precipitation, HiTrap Q, Superdex 75); apofied with AcpH, loaded with probe 1a by the one-pot chemoenzymatic method, purified by …
B5: crypto-1b-AcpP (C16AcpP) (natural protein, E. coli)
chain: B3 chain
modifications: Ser36 carries a 4'-phosphopantetheineamide arm with the C16 α-bromo acyl probe 1b
notes: acyl carrier protein AcpP, E. coli; Called 'native AcpP recombinant protein'; no tag is named; In the crosslinked complexes the α-carbon of the probe is bonded to Cys163 of the KS; source: E. coli BL21 (DE3), purified (isopropanol precipitation, HiTrap Q, Superdex 75); apofied with AcpH, loaded with probe 1b by the one-pot chemoenzymatic method, purified by SEC
B6: 1c-AcpP (C2αBr-AcpP) (natural protein, E. coli)
chain: B3 chain
modifications: Ser36 carries a 4'-phosphopantetheineamide arm with the C2 α-bromo probe 1c
notes: acyl carrier protein AcpP, E. coli; also called C2αBr (1c); crypto-1c-ACP; source: E. coli BL21 (DE3), purified; apofied with AcpH, loaded with probe 1c by the one-pot chemoenzymatic method, purified by SEC
B7: C3Cl-AcpP (natural protein, E. coli)
chain: B3 chain
modifications: Ser36 carries a 4'-phosphopantetheineamide arm with the C3 chloroacrylate (chlorovinyl) probe
notes: acyl carrier protein AcpP, E. coli; also called C3Cl (2a); source: E. coli BL21 (DE3), purified; apofied with AcpH, loaded with the C3 chloroacrylate probe by the one-pot chemoenzymatic method, purified by SEC

Data set [1] concerns the molecule itself. As to the kind of experiment: crystal structure; AcpP covalently crosslinked through its pantetheineamide probe (Ser36) to Cys163 of the KS (crypto-AcpP:KS 5:1, 37 °C, 16 h; SEC in 20 mM Tris, 50 mM NaCl, pH 7.4); hanging drop, 6 °C, PEG 8K, 0.1 M sodium cacodylate pH 6.5.
In data set [2] the target is FabF F400A (gate removal mutant) (E. coli). Description: cross-linking; mechanism-based crosslinking, single time point: 40 μM crypto-AcpP, 20 μM FabF, 25 mM Tris, 150 mM NaCl, 10% glycerol, 0.5 mM TCEP, pH 7.4; SDS-PAGE densitometry; efficiency normalised to the average of wt FabF; n = 3.
The target in data set [3] is FabF G402A (loop flexibility-modulated mutant) (E. coli). The data set is described as above.
Data set [4] addresses B1. Described as above. The settings on record: both partners purified.
Data set [5] deals with FabF D265A (loop 2 destabilization mutant) (E. coli). The data set is described as above.
Data set [6] deals with FabF D265N (loop 2 destabilization mutant) (E. coli). The description is as above.
Data set [7] concerns the target FabF G310F (pocket-blockage mutant) (E. coli). The description is as above.
The target of data set [8] is FabF G310M (pocket-blockage mutant) (E. coli). The description is as above.
Data set [9] has as its target B1. Description: crystal structure; AcpP covalently crosslinked through its pantetheineamide probe (Ser36) to Cys163 of the KS (crypto-AcpP:KS 5:1, 37 °C, 16 h; SEC in 20 mM Tris, 50 mM NaCl, pH 7.4); hanging drop, 6 °C, PEG 8K, 0.1 M sodium cacodylate pH 6.5. To be noted: both partners purified.

As to B1, the “stoichiometry N” value in data set [1] was 2.

With B2, in data set [1], the “stoichiometry N” value came to 2.

For B3, the results for the crosslinking efficiency normalised to wt FabF in [2] and in data set [3] were 133% and 24%, respectively. Moreover, the binding result in data set [4] is given as “binds”.

For B4, the crosslinking efficiency normalised to wt FabF in [5] was 51%; in [6], 64%; in data set [7], 33%; in data set [8], 30%. Also, the binding result in data set [9] is “binds”.

On to B5, for which, in data set [9], the binding result was “binds”.

In the case of B6, the crosslinking efficiency normalised to wt FabF in [5] was 72%; in data set [6] it was 77%; in data set [7] it was 73%; in data set [8], 70%. Further, the binding result in data set [4] is recorded as “binds”.

Consider B7, for which the crosslinking efficiency normalised to wt FabF was found to be 63% in data set [5]; 73% in data set [6]; 85% in data set [7]; 82% in data set [8]; 87% in [3]. Also, the binding result in data set [4] was “binds”.

For the origin of these results see PMC7138838, “Gating mechanism of elongating β-ketoacyl-ACP synthases” (Nature Communications, 2020).
